The record followed here is patent US20240150440A1 (LUMEN BIOSCIENCE, published 2024).

In this assay the target is SARS-CoV-2 spike protein on pseudotyped lentivirus (Wuhan Reference Pseudovirus) (SARS-CoV-2, UniProt P0DTC2 14-1273). The assay can be described thus: cell-based or functional assay.

B1: PP1141 MBP-4B0F-PAPA-R5d-D4-H6 (VHH)
VHH: QVQLVESGGGLVQPGGSLRLSCAASGSDFTINAMHWFRQAPGKQREFVATITSTSSTAYRDSVKGRFTISRDNAKNTVYLQMNSLKPEDTAVYYCAAFAVRDADTAGWTARDYWGQGTQVTVSS
notes: Form: Heptamer
In the case of B1, the “infectivity % under 10 ug/mL VHH treatment” value (“infectivity %” below) is 73.1%.

B2: PP887 MBP-S1b-E7-H6 (VHH)
VHH: QVQLVESGGGLVQPGGSLRLSCAASGGEFSDNGLHWFRQAPGKQREFVATASSDGSTQYRDSVKGRFTISRDNAKNTVYLQMNSLKPEDTAVYYCTALLMSSAGEYDVWGQGTQVTVSS
notes: Form: Monomer
As for B2, the “infectivity %” value was determined as 85.7%.

B3: PP885 MBP-R5b-C5-H6 (VHH)
VHH: QVQLVESGGGLVQPGGSLRLSCAASGSPFKTQTVHWFRQAPGKGREWVASITSGSGTQYMDSVKGRFTISRDNAKNTVYLQMNSLKPEDTAVYYCAAANDGYGVDWGQGTQVTVSS
notes: Form: Monomer
With B3, the “infectivity %” value came out at 101%.

B4: PP806 MBP-R2B-E6-H6 (VHH)
VHH: QVQLVESGGGLVQPGGSLRLSCAASGGVTRGNAMAWYRQAPGKQREIVAAIDNGGSHAYGDSVKGRFTISRDNAKNTVYLQMNSLKPEDTAVYYCAVFPDHDSEQASIDRVYWGQGTQVTVSS
notes: Form: Monomer
Take B4: the “infectivity %” value was 86.5%.

B5: PP1177 MPB-scTRP-PAPA-R2a-F3-H6 (VHH)
VHH: QVQLVESGGGLVQPGGSLRLSCAASGSITSINWMHWFRQAPGKDREGVASISQTGRGSYADSVKGRFTISRDNAKNTVYLQMNSLKPEDTAVYYCAAASRTGTPYNYWGQGTQVTVSS
notes: Form: Trimer
For the molecule B5, the “infectivity %” value was 51.1%.

B6: PP886 MBP-S1a-C4-H6 (VHH)
VHH: QVQLVESGGGLVQPGGSLRLSCAASGSRDSINTAHWYRQAPGKAREWVASLDNSTTGSYADSVKGRFTISRDNAKNTVYLQMNSLKPEDTAVYYCAAVTGTPGGLGFYDYWGQGTQVTVSS
Take B6: the “infectivity %” value was determined as 84.8%.

B7: PP883 MBP-R1e-D4-H6 (VHH)
VHH: QVQLVESGGGLVQPGGSLRLSCAASGSIREINAMHWVRQAPGKGRELVASIDSGSLDYYADSVKGRFTISRDNAKNTVYLQMNSLKPEDTAVYYCAASRSGDYRYWGQGTQVTVSS
notes: Form: Monomer
As to B7, the “infectivity %” value is 94.3%.

B8: PP823 MBP-R5B-C3-H6 (VHH)
VHH: QVQLVESGGGLVQPGGSLRLSCAASGGISVANVMHWFRQAPGKEREGVAGLTSEGSRYYADSVKGRFTISRDNAKNTVYLQMNSLKPEDTAVYYCAAEPTGNTHEFEYWGQGTQVTVSS
With B8, the “infectivity %” value came out at 65.5%.

B9: PP888 MBP-S1b-E11-H6 (VHH)
VHH: QVQLVESGGGLVQPGGSLRLSCAASGSYASIASMHWFRQAPGKEREFVAGVTSGGSTNYGDSVKGRFTISRDNAKNTVYLQMNSLKPEDTAVYYCNALAGANYESQWEEYNYWGQGTQVTVSS
notes: Form: Monomer
In the case of B9, the “infectivity %” value was found to be 80%.

B10: PP881 MBP-R5a-F2-H6 (VHH)
VHH: QVQLVESGGGLVQPGGSLRLSCAASGSISSIEAMSWFRQAPGKQREGVATMASGGDTSYADSVKGRFTISRDNAKNTVYLQMNSLKPEDTAVYYCAAQTYRPDTWGRYTFWGQGTQVTVSS
notes: Form: Monomer
B10: the “infectivity %” value worked out at 83.2%.

B11: PP884 MBP-R1i-A11-H6 (VHH)
VHH: QVQLVESGGGLVQPGGSLRLSCAASGSILQINAIHWFRQAPGKQREEVAAITSGGSTGYADSVKGRFTISRDNAKNTVYLQMNSLKPEDTAVYYCAATSTRGGLDSDYWGQGTQVTVSS
notes: Form: Monomer
As to B11, the “infectivity %” value is 91.3%.

B12: PP880 MBP-R5a-B5-H6 (VHH)
VHH: QVQLVESGGGLVQPGGSLRLSCAASGDDFIENAISWYRQAPGKGREWVAAVTLGGHSNYADSVKGRFTISRDNAKNTVYLQMNSLKPEDTAVYYCNYPVGIPAVAIDGRRSYGYWGQGTQVTVSS
notes: Form: Monomer
As for B12, the “infectivity %” value was found to be 58%.
